According to PMC10746543 (2023):

Columns and labels:
_(Alexa488)DDB1 [1] = biological target: T1, _(Alexa488)DDB1 (human, UniProt Q16531 1-1140, SpyTag joined to SpyCatcher (S50C) labelled with Alexa488–C5–maleimide); assay: FRET; compound HQ461 titration
_(Alexa488)DDB1 [2] = biological target: T1, _(Alexa488)DDB1; assay: FRET; compound Z7 titration
_(Alexa488)DDB1 [3] = biological target: T1, _(Alexa488)DDB1; assay: FRET; compound dCeMM3 titration
_(Alexa488)DDB1 [4] = biological target: T1, _(Alexa488)DDB1; assay: FRET; compound Z11 titration
_(Alexa488)DDB1 [5] = biological target: T1, _(Alexa488)DDB1; assay: FRET; compound Z12 titration

T1 sequence (Q16531 whole entry): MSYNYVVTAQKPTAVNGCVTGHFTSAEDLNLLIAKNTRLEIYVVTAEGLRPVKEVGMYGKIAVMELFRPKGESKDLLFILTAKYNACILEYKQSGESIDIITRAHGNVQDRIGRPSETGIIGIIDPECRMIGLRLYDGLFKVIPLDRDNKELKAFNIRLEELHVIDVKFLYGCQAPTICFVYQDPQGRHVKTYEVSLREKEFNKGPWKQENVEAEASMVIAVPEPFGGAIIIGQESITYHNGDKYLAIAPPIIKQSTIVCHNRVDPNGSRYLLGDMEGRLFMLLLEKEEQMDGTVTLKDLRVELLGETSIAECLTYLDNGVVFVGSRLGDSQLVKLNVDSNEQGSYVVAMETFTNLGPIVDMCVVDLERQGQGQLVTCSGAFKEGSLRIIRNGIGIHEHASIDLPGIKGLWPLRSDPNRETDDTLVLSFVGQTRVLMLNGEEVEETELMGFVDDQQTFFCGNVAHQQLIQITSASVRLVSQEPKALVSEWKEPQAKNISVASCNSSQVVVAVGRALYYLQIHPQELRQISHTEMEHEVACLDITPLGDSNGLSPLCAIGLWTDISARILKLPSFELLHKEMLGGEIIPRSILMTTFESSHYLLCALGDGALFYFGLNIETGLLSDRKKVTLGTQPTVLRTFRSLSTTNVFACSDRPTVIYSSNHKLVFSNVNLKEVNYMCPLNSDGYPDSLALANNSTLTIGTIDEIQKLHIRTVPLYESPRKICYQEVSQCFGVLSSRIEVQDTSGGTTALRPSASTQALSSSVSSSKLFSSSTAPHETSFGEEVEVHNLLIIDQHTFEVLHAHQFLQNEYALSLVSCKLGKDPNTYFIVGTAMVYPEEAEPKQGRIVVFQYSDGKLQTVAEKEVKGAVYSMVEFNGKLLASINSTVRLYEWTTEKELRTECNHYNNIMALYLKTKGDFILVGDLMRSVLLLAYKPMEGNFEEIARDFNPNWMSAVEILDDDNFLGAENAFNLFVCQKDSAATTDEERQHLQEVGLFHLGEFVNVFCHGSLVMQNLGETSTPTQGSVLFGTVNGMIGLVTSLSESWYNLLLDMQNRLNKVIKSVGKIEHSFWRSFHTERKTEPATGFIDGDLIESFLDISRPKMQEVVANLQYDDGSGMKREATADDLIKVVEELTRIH

EC50 (_(Alexa488)DDB1 [1]): 43 nM | EC50 (_(Alexa488)DDB1 [2]): 303 nM | EC50 (_(Alexa488)DDB1 [3]): 263 nM | EC50 (_(Alexa488)DDB1 [4]): 178 nM | EC50 (_(Alexa488)DDB1 [5]): 833 nM
B1: CDK12–cyclin K_(biotin) (complex)
chain 1: not shown
chain 2: MKENKENSSPSVTSANLDHTKPCWYWDKKDLAHTPSQLEGLDPATEARYRREGARFIFDVGTRLGLHYDTLATGIIYFHRFYMFHSFKQFPRYVTGACCLFLAGKVEETPKKCKDIIKTARSLLNDVQFGQFGDDPKEEVMVLERILLQTIKFDLQVEHPYQFLLKYAKQLKGDKNKIQKLVQMAWTFVNDSLCTTLSLQWEPEIIAVAVMYLAGRLCKFEIQEWTSKPMYRRWWEQFVQDVPVDVLEDICHQILDLYSQGKQQMPH
modifications: biotin on the Avi tag (enzymatic, BirA)
